Data taken from patent publication US9549967B2, “Regulation of sodium channels by PLUNC proteins” (The University of North Carolina at Chapel Hill, priority 2009, dated 2017).

T1: ENaC (Homo sapiens, UniProt P37088+P51168+P51170)
T1 construct: endogenous in cells; host or cells: primary human bronchial epithelial cultures
T1 sequence (P37088 1-669): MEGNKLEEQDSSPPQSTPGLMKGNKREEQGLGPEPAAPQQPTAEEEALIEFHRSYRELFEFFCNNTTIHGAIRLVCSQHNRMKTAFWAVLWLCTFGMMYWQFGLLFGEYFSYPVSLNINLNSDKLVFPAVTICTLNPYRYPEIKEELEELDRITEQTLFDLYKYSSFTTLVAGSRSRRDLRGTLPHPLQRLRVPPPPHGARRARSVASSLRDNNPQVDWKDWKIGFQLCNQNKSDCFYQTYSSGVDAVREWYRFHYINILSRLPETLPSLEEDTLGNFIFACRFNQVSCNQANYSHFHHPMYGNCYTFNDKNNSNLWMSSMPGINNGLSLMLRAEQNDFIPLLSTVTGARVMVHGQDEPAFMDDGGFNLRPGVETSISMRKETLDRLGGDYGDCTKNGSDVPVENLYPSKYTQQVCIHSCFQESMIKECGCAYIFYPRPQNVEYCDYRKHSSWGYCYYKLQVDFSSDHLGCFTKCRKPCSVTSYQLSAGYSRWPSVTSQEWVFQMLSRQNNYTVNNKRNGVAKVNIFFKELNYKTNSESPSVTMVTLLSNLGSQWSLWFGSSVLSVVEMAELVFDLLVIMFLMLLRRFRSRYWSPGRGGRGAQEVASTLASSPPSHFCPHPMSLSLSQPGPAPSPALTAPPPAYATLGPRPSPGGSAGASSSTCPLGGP
T1 sequence (P51168 1-640): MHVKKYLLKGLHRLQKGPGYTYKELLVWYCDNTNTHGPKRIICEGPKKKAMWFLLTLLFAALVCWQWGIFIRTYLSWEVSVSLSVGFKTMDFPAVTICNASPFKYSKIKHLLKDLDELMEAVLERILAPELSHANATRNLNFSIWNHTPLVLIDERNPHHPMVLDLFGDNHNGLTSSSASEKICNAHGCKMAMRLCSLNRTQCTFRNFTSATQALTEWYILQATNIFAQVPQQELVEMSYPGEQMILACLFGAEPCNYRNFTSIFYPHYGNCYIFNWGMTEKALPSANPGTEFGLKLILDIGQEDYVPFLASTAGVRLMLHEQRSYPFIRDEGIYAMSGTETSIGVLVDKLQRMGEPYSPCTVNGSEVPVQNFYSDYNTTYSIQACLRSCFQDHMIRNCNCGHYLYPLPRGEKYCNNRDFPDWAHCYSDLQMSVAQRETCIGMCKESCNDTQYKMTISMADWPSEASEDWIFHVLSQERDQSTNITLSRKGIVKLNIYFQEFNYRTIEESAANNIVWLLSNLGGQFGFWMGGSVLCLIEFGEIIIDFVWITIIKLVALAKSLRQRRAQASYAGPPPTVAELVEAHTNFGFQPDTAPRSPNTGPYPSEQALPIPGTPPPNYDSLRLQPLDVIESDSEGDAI
T1 sequence (P51170 1-649): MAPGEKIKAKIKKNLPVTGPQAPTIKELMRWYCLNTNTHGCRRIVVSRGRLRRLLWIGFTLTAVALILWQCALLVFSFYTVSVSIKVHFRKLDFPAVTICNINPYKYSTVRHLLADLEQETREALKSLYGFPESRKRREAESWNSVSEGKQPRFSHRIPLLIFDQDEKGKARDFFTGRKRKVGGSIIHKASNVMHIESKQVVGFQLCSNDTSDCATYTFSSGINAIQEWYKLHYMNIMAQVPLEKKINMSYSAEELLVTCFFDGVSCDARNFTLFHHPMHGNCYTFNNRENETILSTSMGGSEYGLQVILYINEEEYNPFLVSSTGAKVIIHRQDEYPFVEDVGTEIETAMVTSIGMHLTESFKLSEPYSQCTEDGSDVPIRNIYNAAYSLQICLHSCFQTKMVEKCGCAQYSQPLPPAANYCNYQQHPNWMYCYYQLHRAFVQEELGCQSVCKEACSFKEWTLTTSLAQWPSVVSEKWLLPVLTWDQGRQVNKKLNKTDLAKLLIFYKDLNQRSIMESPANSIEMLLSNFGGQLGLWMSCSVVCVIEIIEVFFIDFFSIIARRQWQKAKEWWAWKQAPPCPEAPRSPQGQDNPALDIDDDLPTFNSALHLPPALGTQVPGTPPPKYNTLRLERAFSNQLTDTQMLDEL

B1: SPLUNC1: human SPLUNC1, 256 amino acid secreted PLUNC protein (SEQ ID NO:1); rSPLUNC1 = V5/6His-tagged protein purified from HEK293 media (protein, listed as Homo sapiens)
chain: MFQTGGLIVFYGLLAQTMAQFGGLPVPLDQTLPLNVNPALPLSPTGLAGSLTNALSNGLLSGGLLGILENLPLLDILKPGGGTSGGLLGGLLGKVTSVIPGLNNIIDIKVTDPQLLELGLVQSPDGHRLYVTIPLGIKLQVNTPLVGASLLRLAVKLDITAEILAVRDKQERIHLVLGDCTHSPGSLQISLLDGLGPLPIQGLLDSLTGILNKVLPELVQGNVCPLVNEVLRGLDITLVHDIVNMLIHGLQFVIKV
modifications: V5/6His tag
notes: rSPLUNC1 = V5/6His-tagged protein purified from HEK293 media

Target: T1, ENaC
Assay: Transepithelial voltage under thin film conditions in human bronchial epithelial cultures (microelectrode)
Format: cell-based
Text: Tissue procurement and cell culture: Cells were harvested by enzymatic digestion from human bronchial tissue as previously described under a protocol approved by the UNC School of Medicine IRB (Tarran et al., J. Gen. Physiol. 127:591 (2006)). Human excess donor lungs and excised recipient lungs were obtained at the time of lung transplantation from portions of main stem or […] bronchi and cells were harvested by enzymatic digestion. All preparations were maintained at an air-liquid interface in a modified bronchial epithelial medium and used 2-5 weeks after seeding on 12 mm T-Clear inserts (Corning Costar) coated with human placental type VI collagen (Sigma). Phosphate buffered saline (PBS) was used for washing human bronchial epithelial culture mucosal surfaces.
Microelectrode studies. A single-barreled potential difference-sensing electrode was placed in the airway surface liquid by micromanipulator and used in conjunction with a macroelectrode in the serosal solution to measure transepithelial voltage using a voltmeter (World Precision Instruments). […] Transepithelial resistance was routinely measured using the EVOM system (WPI) as previously described (Tarran et al., J. Gen. Physiol. 127:591 (2006)).

| Molecule | transepithelial voltage after mucosal trypsin (SPLUNC1-exposed group, trypsin for 30 min after 1 h rSPLUNC1 exposure) | transepithelial voltage after mucosal trypsin (control cultures, trypsin for 30 min) | regulation of the transepithelial voltage (SPLUNC1 knockdown cultures, 50 ng/ml rSPLUNC1 added to airway surface liquid) | transepithelial voltage (cultures not pre-washed, airway surface liquid accumulated for 24 h) | onset of inhibition (human bronchial epithelial cultures, FIG. 2C, 2D) | rate of inhibition of the transepithelial voltage (rSPLUNC1 vs aprotinin addition, effects not additive) | transepithelial voltage, addition to amiloride-treated cultures (same amiloride-treated cultures, n=12) | transepithelial voltage (washed cultures, 20 μl Ringer containing 50 ng/ml rSPLUNC1) |
| --- | --- | --- | --- | --- | --- | --- | --- | --- |
| trypsin [reference compound] | significantly raised the transepithelial voltage | without effect | – | – | – | – | – | – |
| B1 | – | – | restored | without further effect | 30 to 60 min | identical rates | without further effect | significantly reduced the transepithelial voltage |
